Patent publication US20260062488A1 (AbbVie / Abbott, published 2026)

Experiments:
FcgRIIIB NA1 = target: T1, FcgRIIIB NA1 (human, UniProt O75015); experiment: flow cytometry on CHO-K1 cells expressing the receptor (curve FcgRIIIB NA1), monomeric antibody, F(ab')2 anti-human IgG AF647; N=1
T1 construct: cell surface, on engineered CHO-K1 cells; the list of molecules has only an FcγRIIIb on CHO-K1 cells without the allotype; also called human FcγRIIIb (NA1) on CHO-K1 cells

human α4β1 integrin = target: T2, human α4β1 integrin (human, UniProt P05556 21-798); experiment: FACS on recombinant cells expressing human α4β1; N=1
T2 construct: whole, on cells; also called hα4β1

cynomolgus α4β7 integrin [1] = target: T3, cynomolgus α4β7 integrin (cynomolgus monkey); experiment: FACS, cyno CD8+ naïve
T3 construct: whole, on cells; On CHOK1-cα4β7 cells or cynomolgus blood lymphocytes; also called cα4β7; cyno α4β7

cynomolgus α4β7 integrin [2] = target: T3, cynomolgus α4β7 integrin; experiment: binding to cyno CD4+ Tm cells
cynomolgus α4β7 integrin [3] = target: T3, cynomolgus α4β7 integrin; experiment: FACS, cyno CD4+ naïve
[4] = target: T4, cynomolgus FcγRIII extracellular domain protein (cynomolgus monkey, UniProt Q8SPW2 17-208); experiment: SPR (Biacore T200), FcγR captured, antibody injected
T4 construct: extracellular domain; also called Cyno FcγRIII

[5] = target: T5, cynomolgus FcγRI extracellular domain protein (cynomolgus monkey); experiment: as above
T5 construct: extracellular domain; also called Cyno FcγRI

cynomolgus α4β7 integrin [6] = target: T3, cynomolgus α4β7 integrin; experiment: FACS, cyno CD8+ naïve; remark: listed apart in the source
[7] = target: T6, human FcγRIIIa (F176) on CHO-K1 cells (human, UniProt P08637 17-254); experiment: flow cytometry on CHO-K1 cells expressing the receptor (curve FcgRIIIA F176), monomeric antibody, F(ab')2 anti-human IgG AF647; N=1
T6 construct: whole, on cells; also called F158

cynomolgus α4β7 integrin [8] = target: T3, cynomolgus α4β7 integrin; experiment: FACS, cyno CD8+ memory
cynomolgus α4β7 integrin [9] = target: T3, cynomolgus α4β7 integrin; experiment: FACS, cyno CD8+ memory T cells

T4 sequence (Q8SPW2 17-208): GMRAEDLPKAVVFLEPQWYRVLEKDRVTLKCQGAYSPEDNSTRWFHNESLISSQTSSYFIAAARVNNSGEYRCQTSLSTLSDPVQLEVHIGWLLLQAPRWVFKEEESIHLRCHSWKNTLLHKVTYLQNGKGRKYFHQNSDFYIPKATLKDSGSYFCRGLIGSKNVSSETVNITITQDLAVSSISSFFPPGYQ
T1 sequence (O75015 other isoform, or with tags, fused parts or gaps limits assumed): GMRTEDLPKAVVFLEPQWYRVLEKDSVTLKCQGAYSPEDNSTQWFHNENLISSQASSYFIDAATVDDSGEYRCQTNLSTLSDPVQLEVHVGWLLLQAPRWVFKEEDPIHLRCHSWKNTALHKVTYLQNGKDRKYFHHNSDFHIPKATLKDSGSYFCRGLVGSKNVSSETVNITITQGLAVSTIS
T6 sequence (P08637 17-254): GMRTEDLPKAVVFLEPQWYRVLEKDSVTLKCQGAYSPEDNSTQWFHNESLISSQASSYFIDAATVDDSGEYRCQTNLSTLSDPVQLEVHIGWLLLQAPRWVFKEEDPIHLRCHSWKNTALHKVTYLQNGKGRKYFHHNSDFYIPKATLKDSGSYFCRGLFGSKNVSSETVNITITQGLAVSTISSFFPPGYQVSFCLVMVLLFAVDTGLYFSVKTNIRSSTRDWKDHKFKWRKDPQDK

B1: Ab-h1.9d-WT (antibody, human IgG1, kappa)
heavy: not shown
light: DIQMTQSPSSLSASVGDRVTITCHASQDISDNIGWLQQKPGKSFKLLIYHGTNLEDGVPSRFSGSGSGTDYTLTISSLQPEDFATYYCVQYAQFPWTFGGGTKVEIKRTVAAPSVFIFPPSDEQLKSGTASVVCLLNNFYPREAKVQWKVDNALQSGNSQESVTEQDSKDSTYSLSSTLTLSKADYEKHKVYACEVTHQGLSSPVTKSFNRGEC
notes: IgG1/kappa with D356E and L358M (EU); also called Anti-human α4β7 (AC-166667) hu IgG1/k WT mAb
With B1 the binding result (FcgRIIIB NA1) was “binds”, the binding result (human α4β1 integrin) was “no binding (tested: about 70 (axis without unit))” and the EC50 (cynomolgus α4β7 integrin [1]) was 0.042 nM. For the same binder, the EC50 (cynomolgus α4β7 integrin [2]) was 0.01 nM, the EC50 (cynomolgus α4β7 integrin [3]) was 0.045 nM and the Kd [4] was 280 nM. For the same binder, the Kd [5] was 12 nM, the EC50 (cynomolgus α4β7 integrin [6]) was 0.042 nM and the binding result [7] was “binds”. The EC50 (cynomolgus α4β7 integrin [8]) was 0.036 nM and the EC50 (cynomolgus α4β7 integrin [9]) was 0.036 nM.
